Entries after “also recorded” stand apart in the source; their conditions may differ.

Data set [1] in a line: Circular dichroism: GdmCl chemical denaturation and temperature melts. The settings on record: for folding stability by GdmCl denaturation: CD at 222 nm, PBS pH 7.4 or Na2PO4-Citrate at lower pH. (Circular dichroism is widely used to follow secondary structure.)
The next data set deals with U2-OS cells. Description: Colocalization of +36GFP fusions with lysosomal membrane (confocal microscopy). The conditions noted are these: 5 μM, 1 hr. The data set is classed as cell-based. On the procedure: U-2 OS (ATCC) cells were cultured in DMEM supplemented with 10% (v/v) inactivated FBS (Corning), 2 mM glutamine, penicillin (100 IU/mL), and streptomycin (100 μg/mL) at 37° C. and 5% CO2. The glass-bottom coverslip chambers were pre-coated with 500 μg/mL of Matrigel (Corning). Transfection of LAMP1-HaloTagTM was performed using Lonza Nucleofector system according to the manufacturer's specifications. After overnight of recovery and expression, the cells expressing LAMP1-HaloTagTM were labeled with 100 nM JF646-HTL for 30 minutes and washed three times with pre-warmed DMEM medium. The final concentration of 5 μM+36GFP fusion proteins was incubated with the LAMP1-HaloTagTM expressing U-2 OS cells on a pre-coated coverslip for 1 hr. Cells were fixed with 4% paraformaldehyde for 20 min at room temperature (RT) and quenched/rinsed with PBS supplemented with 30 mM glycine. Then, the coverslips were mounted on FluoroSaveTM (Millipore). For pH measurement of the lysosome, LysoSensorTM Yellow/Blue DND-160 was incubated at 1 mg/mL overnight and washed twice prior to imaging (54). The final concentration of 5 μM protein was incubated with the LAMP1-HaloTag expressing U2-OS cells that were loaded with 1 mg/mL LysoSensorTM Yellow/Blue DND-160 for 1 hr. In separate chambers, LysoSensorTM Yellow/Blue DND-160 loaded cells were incubated with bafilomycin A1 (1 μM) and chloroquine (50 μM) for 1 hr as a control. For fixed cell confocal microscopy, a customized Nikon TiE inverted scope outfitted with a Yokogawa spinning-disk scan head (#CSU-X1) along with an Andor iXonTM EM-CCD camera (DU-897) with […] exposure time was used to collect 3D images using an SR Apo TIRF 100×1.49 oil-immersion objective. […] coefficients were calculated in 3D with JF646 signal (LAMP-HaloTag) and +36GFP signal (corresponding proteins) using Imaris software with thresholding. Zeiss 880 equipped with AiryScanTM was also used to obtain high resolution images using a Plan-Apochromatic 63×/1.4 oil DIC objective.

The nature of data set [2]: Native mass spectrometry of pH-induced changes in oligomeric state. The data set is classed as physicochemical. The conditions noted are these: for pH response of oligomeric state (pH-induced disassembly): pH ~7 to ~3. An outline of the steps: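 Protein in 200 mM ammonium acetate/50 mM triethylammonium acetate, acid-adjusted to each target pH, was held 30 min on ice and sprayed by nESI at 5 μM monomer or 1.67 μM trimer. Oligomer fractions came from integrated charge-state series, then fitted by nonlinear least squares.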

The nature of data set [3]: Fluorescence dequenching liposome leakage (liposome disruption) assay. The data set is classed as biochemical. The conditions noted are these: for pH-dependent liposome disruption: SRB leakage. Here is the method:
Liposomes composed of DOPC (1,2-dioleoyl-sn-glycero-3-phosphocholine), DOPC with 25% cholesterol (molar ratio to DOPC), 3:1 DOPC:POPS (1-palmitoyl-2-oleoyl-sn-glycero-3-phospho-L-serine), and 3:1 DOPC:POPS with 25% cholesterol were prepared identically to a final concentration of 5 mM total lipid as previously described (32); lipids from Avanti Polar Lipids. Lipids solubilized in chloroform were dried under nitrogen gas and stored under vacuum for a minimum of 2 hours to remove residual solvent. The dried lipid film was the resuspended in Tris buffer (10 mM Tris, 150 mM NaCl, and 0.02% NaN3 pH 8.0) containing 25 mM Sulforhodamine B (SRB) fluorophore (Sigma) and subjected to 10 sequential freeze thaw cycles in liquid nitrogen. Liposomes were extruded 29 times through 100 nm pore size polycarbonate filters (Avanti Polar Lipids) and purified from free fluorophore using a PD-10 gel filtration column (GE Healthcare) into storage buffer (10 mM Tris, 150 mM NaCl, and 0.02% NaN3 pH 8.0). Liposome size and homogeneity was analyzed by dynamic light scattering (DLS) using a Dynapro Nanostar™ DLS (Wyatt Technologies). On average liposome diameter ranged from 120-130 nm with low polydispersity. Liposomes were stored at 4° C. and used within 5 days of preparation.
Liposome disruption and content leakage was analyzed by fluorescence spectroscopy as previously described (32). […] The solution was rapidly acidified to the target pH by addition of a fixed volume of acidification buffer and incubated for 20 minutes. […] SRB fluorescence is independent of pH within the ranges used here. Finally. Triton X-100 (Sigma) was added to a final concentration of 1% to fully disrupt liposomes. Liposome disruption as indicated by content leakage and SRB dequenching was normalized using the formula [Fω−F(0)]/[F(Max)−F(0)] where F(0) is the average fluorescence intensity before acidification and F(Max) is the average fluorescence intensity ater addition of Triton X-100. All measurements were collected on a Varian Cary Eclipse spectrophotometer using an excitation/emission pairing of […] and 2.5 nm slit widths at 24° C. Any data plotted together was collected using the sum batch of liposomes.

The mark [4] stands for this setting: 2.5 μM protein with respect to monomer.

B1: pRO-2: designed pH-responsive homotrimer, SEQ ID NO: 1-2 (protein)
chain 1: MGSHHHHHHGSGSENLYFQGSEYEIRKALEELKAATAELKRATASLRAITEELKKNPSEDALVEHNRAIVEHNAIIVEHNRIIAAVLELIVRAIK
chain 2: SEYEIRKALEELKAATAELKRATASLRAITEELKKNPSEDALVEHNRAIVEHNAIIVEHNRIIAAVLELIVRAIK
In the case of B1, the “effect of EDTA on helical fold or thermostability” value in data set [1] (10 mM EDTA, PBS pH 7.4) is “no effect on the helical fold or thermostability”. Also, the “folding stability by GdmCl denaturation” value in data set [1] is “decreased folding stability at low pH; also recorded: strongly pH dependent”. For the same molecule, the “colocalization with lysosomal membranes” value in the data set on U2-OS cells is “colocalize with lysosomal membranes and are not degraded”. For the same molecule, the “pH response of oligomeric state (pH-induced disassembly)” value in data set [2] (native MS) was “predominantly monomeric at pH 4”. The reversibility of disassembly result in data set [2] (pH lowered with acetic acid, then raised by ammonia or buffer exchange) is given as “re-association of monomers into trimer”. Moreover, in data set [3] (setting [4]), the “highest pH with liposome disruption” value was at most 6 pH, the “pH of maximal liposome disruption activity” value is reported as about 5 pH and the pH-dependent liposome disruption result was “disrupts liposomes in a pH-dependent manner”. For the same molecule, the “disruption of liposomes with more native-like lipid compositions” value in data set [3] (pH 5.0, DOPC, POPS, cholesterol mixtures) was “caused pH-dependent disruption of liposomes with more native-like lipid compositions”.

B2: pRO-2 I56V: pRO-2 mutant, SEQ ID NO: 17-18 (protein)
chain 1: MGSHHHHHHGSGSENLYFQGSEYEIRKALEELKAATAELKRATASLRAITEELKKNPSEDALVEHNRAIVEHNAIVVEHNRIIAAVLELIVRAIK
chain 2: GSEYEIRKALEELKAATAELKRATASLRAITEELKKNPSEDALVEHNRAIVEHNAIVVEHNRIIAAVLELIVRAIK
B2: the “folding stability by GdmCl denaturation” value in data set [1] is listed as “decreases stability”. In addition, the “colocalization with lysosomal membranes” value in the data set on U2-OS cells is “clearly localized within lysosomes”; in the data set with U2-OS cells (listed as I56V), “colocalize with lysosomal membranes and are not degraded; also recorded: most strongly colocalized with the lysosomal membrane”. Also, the “cooperativity of the pH-induced transition” value in data set [2] (native MS at different pH values) was “Neither of the mutations substantially affect the cooperativity”. Moreover, the “pH transition point of disassembly (pH set point, pH0)” value in data set [2] (native MS, evaluated from pH 7 down to pH 3) was “approximately 5.8 pH”. Also, in data set [2] (native MS), the “pH response of oligomeric state (pH-induced disassembly)” value was “most pH-sensitive”. In data set [3] (setting [4]), the pH-dependent liposome disruption entry is reported as “increased liposome permeabilization activity; also recorded: increased membrane permeabilization activity”.

For the origin of these results see patent US20220144895A1, “DE NOVO DESIGN OF TUNABLE PH-DRIVEN CONFORMATIONAL SWITCHES” (University of Washington, priority 2019, published 2022).
